Reference: patent US20240417437A1, “Linker Polypeptides” (Trutino Biosciences Inc., priority 2021, published 2024)

What was measured:
[1] = format: binding; conditions: for fusion protein binding to heparin: pH 6
Method: 96-well plates were coated with 10 μg/mL of Heparin-BSA conjugate (provided by Dr. Mueller, Boerhinger Ingelheim) or control BSA for 18-22 hours at room temperature on shaker (350 rpm). After washing, wells are blocked with 2% milk powder in PBS-0.05% Tween 20 or PBS-0.05% Tween 20/1% BSA for 90 minutes. The fusion proteins were then titrated in either 2% milk powder in PBS-0.05% Tween 20 or 1% BSA/PBS-0.05% Tween 20, pH 7.5 and/or pH 6, and added for 2 hours at room temperature with shaking. After washing, an anti-mouse IL-2 biotin-labelled detection antibody (JES6-5H4, ThermoFisher), anti-6×-His Tag HRP conjugate antibody (Invitrogen, 1 mg/mL, cat #MA1-21315-HRP), or anti-human IgG HRP conjugate antibody (SouthernBiotech) was added, and binding was detected using Ultra Streptavidin HRP (ThermoFisher). The plate was developed by adding the chromogenic tetramethylbenzidine substrate (Ultra TMB, ThermoFisher). The reaction was stopped by addition of 0.5 M H2SO4, and the absorbance was read at 450-650 nm. […] Moreover, when the same pH-dependent heparin binding motif was inserted into different locations of IL-2 fusion proteins, all resulting proteins bound heparin at pH 6 with similar high affinities (FIGS. 4F and 4G). Likewise, similar binding affinities were observed when another heparin targeting sequence was engineered into different sites of IL-2 fusion proteins (FIGS. 4H-4I). […] The heparin binding activity is recovered when a heparin binding motif is engineered into the linker polypeptide-IL-15 fusion protein (Construct WWW). Finally, linker polypeptide-IL-2 fusion proteins engineered with a heparin binding site show about 30-fold enhanced binding to heparin in vitro compared to constructs lacking a heparin binding site (Construct EEE and Construct NNNN vs. Construct AAA and Construct NNN, respectively) as shown in FIG. 4M.

[2] = target: fibronectin (Homo sapiens, UniProt P02751); test: Fusion protein plate binding assay on fibronectin
Sequence of fibronectin (P02751 32-2477, species assumed): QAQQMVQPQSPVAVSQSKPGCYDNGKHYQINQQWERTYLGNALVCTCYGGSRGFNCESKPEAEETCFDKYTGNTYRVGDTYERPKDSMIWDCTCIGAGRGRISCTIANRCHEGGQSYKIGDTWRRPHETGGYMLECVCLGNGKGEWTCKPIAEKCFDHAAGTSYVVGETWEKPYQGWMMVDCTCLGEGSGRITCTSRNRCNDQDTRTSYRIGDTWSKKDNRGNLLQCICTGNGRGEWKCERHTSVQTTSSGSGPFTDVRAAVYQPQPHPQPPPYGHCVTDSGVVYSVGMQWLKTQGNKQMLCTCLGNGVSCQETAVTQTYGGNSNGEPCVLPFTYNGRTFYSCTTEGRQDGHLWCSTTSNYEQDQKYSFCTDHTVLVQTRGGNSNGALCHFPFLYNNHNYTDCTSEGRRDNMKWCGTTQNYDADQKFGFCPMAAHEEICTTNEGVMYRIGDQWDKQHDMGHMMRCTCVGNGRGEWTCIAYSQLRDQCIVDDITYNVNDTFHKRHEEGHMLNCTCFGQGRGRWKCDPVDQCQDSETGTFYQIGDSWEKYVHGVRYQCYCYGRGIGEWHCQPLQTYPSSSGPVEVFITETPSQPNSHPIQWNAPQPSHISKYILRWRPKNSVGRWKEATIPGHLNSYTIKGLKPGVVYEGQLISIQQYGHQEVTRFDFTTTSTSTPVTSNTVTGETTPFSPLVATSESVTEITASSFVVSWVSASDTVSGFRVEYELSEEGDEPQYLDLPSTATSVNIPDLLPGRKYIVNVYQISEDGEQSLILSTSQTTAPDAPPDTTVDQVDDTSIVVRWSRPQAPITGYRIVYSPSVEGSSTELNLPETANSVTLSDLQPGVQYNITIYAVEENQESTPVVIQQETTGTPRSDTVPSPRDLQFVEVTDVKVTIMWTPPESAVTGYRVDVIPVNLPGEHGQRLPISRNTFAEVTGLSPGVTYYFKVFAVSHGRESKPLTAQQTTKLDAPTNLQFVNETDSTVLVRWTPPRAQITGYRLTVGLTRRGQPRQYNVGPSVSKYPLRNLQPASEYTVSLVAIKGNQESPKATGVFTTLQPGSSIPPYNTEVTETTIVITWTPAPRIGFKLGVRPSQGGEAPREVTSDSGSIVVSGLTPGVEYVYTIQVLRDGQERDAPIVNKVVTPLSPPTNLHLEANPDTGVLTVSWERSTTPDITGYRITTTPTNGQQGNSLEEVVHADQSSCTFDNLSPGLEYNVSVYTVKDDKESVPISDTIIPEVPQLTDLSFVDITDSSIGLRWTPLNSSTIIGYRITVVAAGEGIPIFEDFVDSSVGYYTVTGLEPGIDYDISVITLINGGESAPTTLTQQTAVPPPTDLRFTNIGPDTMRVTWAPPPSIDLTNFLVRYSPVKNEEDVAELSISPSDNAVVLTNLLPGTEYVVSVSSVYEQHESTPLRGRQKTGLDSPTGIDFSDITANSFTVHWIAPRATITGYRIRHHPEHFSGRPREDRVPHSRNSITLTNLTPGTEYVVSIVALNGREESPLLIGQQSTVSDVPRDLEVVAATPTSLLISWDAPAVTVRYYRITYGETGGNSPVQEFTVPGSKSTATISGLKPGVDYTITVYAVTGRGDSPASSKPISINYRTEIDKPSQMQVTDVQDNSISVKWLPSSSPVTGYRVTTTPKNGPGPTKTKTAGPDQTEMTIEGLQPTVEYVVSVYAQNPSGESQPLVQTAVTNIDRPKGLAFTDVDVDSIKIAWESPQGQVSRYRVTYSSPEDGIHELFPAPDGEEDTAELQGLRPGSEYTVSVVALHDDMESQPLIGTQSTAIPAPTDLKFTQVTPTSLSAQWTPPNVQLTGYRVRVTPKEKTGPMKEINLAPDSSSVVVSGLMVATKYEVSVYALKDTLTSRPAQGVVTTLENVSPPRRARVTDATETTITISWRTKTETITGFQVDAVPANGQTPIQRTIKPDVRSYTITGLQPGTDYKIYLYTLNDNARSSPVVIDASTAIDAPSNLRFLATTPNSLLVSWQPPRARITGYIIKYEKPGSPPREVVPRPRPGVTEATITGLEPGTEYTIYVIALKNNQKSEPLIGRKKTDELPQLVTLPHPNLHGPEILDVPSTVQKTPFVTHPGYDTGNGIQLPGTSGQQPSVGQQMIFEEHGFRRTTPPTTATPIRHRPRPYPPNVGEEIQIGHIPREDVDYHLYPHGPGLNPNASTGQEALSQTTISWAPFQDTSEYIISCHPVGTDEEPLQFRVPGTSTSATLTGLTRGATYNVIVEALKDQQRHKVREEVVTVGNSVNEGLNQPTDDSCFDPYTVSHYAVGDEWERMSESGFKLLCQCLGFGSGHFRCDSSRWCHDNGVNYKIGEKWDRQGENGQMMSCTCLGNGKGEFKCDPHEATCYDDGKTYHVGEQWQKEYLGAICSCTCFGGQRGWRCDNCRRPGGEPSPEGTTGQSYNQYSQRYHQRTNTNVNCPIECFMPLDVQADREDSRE
Method: A similar plate-based assay was developed to interrogate binding of IL-2 fusion variants to fibronectin. 96-well plates were coated with fibronectin (4-10 μg/mL, Sigma) or control BSA for 18-22 hours at room temperature on shaker (350 rpm). After washing, wells were blocked with 2% milk powder in PBS-0.05% Tween 20 or protein-free blocking buffer (Pierce) for 90 min, then fusion proteins were titrated in blocking buffer-0.1% Tween 20, pH 7.5 and/or pH 6, and added for 1 hour at room temperature with shaking. After washing, an anti-mouse IL-2 biotin-labelled detection antibody (JES6-5H4, ThermoFisher) or anti-human IgG HRP conjugate antibody (SouthernBiotech) was added, and binding was detected using Ultra Streptavidin HRP (ThermoFisher). The plate was developed by adding the chromogenic tetramethylbenzidine substrate (Ultra TMB, ThermoFisher). The reaction was stopped by addition of 0.5 M H2SO4, and the absorbance was read at 450-650 nm.

EC50 ([1]; acidic pH, read-out: heparin binding EC50) | fusion protein binding to fibronectin ([2]; acidic pH (pH 6)) | fusion protein binding to fibronectin ([2]; pH 7.5 (neutral)) | heparin binding EC50 value, fold higher than Construct CC [1] | Molecule | fusion protein binding to heparin [1] | pH preference of heparin binding ([1]; pH 6 vs pH 7.5)
~10 nM |  |  |  | Construct CC: mIL2-2x(GHHPH)-MMPcs1-2x(G4S)-mIL2Ra(1-215)-muIgG1Fc; pH heparin (protein, Synthetic: Construct CC, mIL2-2x(GHHPH)-MMPcs1-2x(G4S)-mIL2Ra(1-215)-muIgG1Fc; pH heparin) APTSSSTSSSTAEAQQQQQQQQQQQQHLEQLLMDLQELLSRMENYRNLKLPRMLTFKFYLPKQATELKDLQCLEDELGPLRHVLDLTQSKSFQLEDAENFISNIRVTVVKLKGSDNTFECQFDDESATVVDFLRRWIAFCQSIISTSPQGHHPHGHHPHGPLGVRGGGGGSGGGGSELCLYDPPEVPNATFKALSYKNGTILNCECKRGFRRLKELVYMRCLGNSWSSNCQCTSNSHDKSRKQVTAQLEHQKEQQTTTDMQKPTQSMHQENLTGHCREPPPWKHEDSKRIYHFVEGQSVHYECIPGYKALQRGPAISICKMKCGKTGWTQPQLTCVDEREHHRFLASEESQGSRNSSPESETSCPITTTDFPQPTETTAMTETFVLTMEYKGCKPCICTVPEVSSVFIFPPKPKDVLTITLTPKVTCVVVDISKDDPEVQFSWFVDDVEVHTAQTQPREEQFNSTFRSVSELPIMHQDWLNGKEFKCRVNSAAFPAPIEKTISKTKGRPKAPQVYTIPPPKEQMAKDKVSLTCMITDFFPEDITVEWQWNGQPAENYKNTQPIMDTDGSYFVYSKLNVQKSNWEAGNTFTCSVLHEGLHNHHTEKSLSHSPGK | bound heparin in a dose-dependent manner and with higher affinity than Construct B | preferentially bound heparin at acidic pH
 |  |  |  | Construct NN: mIL2-2x(SG4)-MMPcs1-2x(GHHPH)-mIL2Ra(1-215)-muIgG1Fc; pH heparin (protein, Synthetic: Construct NN, mIL2-2x(SG4)-MMPcs1-2x(GHHPH)-mIL2Ra(1-215)-muIgG1Fc; pH heparin) APTSSSTSSSTAEAQQQQQQQQQQQQHLEQLLMDLQELLSRMENYRNLKLPRMLTFKFYLPKQATELKDLQCLEDELGPLRHVLDLTQSKSFQLEDAENFISNIRVTVVKLKGSDNTFECQFDDESATVVDFLRRWIAFCQSIISTSPQSGGGGSGGGGGPLGVRGGHHPHGHHPHELCLYDPPEVPNATFKALSYKNGTILNCECKRGFRRLKELVYMRCLGNSWSSNCQCTSNSHDKSRKQVTAQLEHQKEQQTTTDMQKPTQSMHQENLTGHCREPPPWKHEDSKRIYHFVEGQSVHYECIPGYKALQRGPAISICKMKCGKTGWTQPQLTCVDEREHHRFLASEESQGSRNSSPESETSCPITTTDFPQPTETTAMTETFVLTMEYKGCKPCICTVPEVSSVFIFPPKPKDVLTITLTPKVTCVVVDISKDDPEVQFSWFVDDVEVHTAQTQPREEQFNSTFRSVSELPIMHQDWLNGKEFKCRVNSAAFPAPIEKTISKTKGRPKAPQVYTIPPPKEQMAKDKVSLTCMITDFFPEDITVEWQWNGQPAENYKNTQPIMDTDGSYFVYSKLNVQKSNWEAGNTFTCSVLHEGLHNHHTEKSLSHSPGK | mimicked the Construct CC binding profile | 
 | No significant binding | No significant binding | greater than 100 fold | Construct B: mIL2-2x(SG4)-MMPcs1-2x(G4S)-mIL2Ralpha(1-215)-mIgG1Fc; no TME (protein, Synthetic: Construct B polypeptide sequence: m IL2-2x(SG4) MMPcs1 2x (G4S) IL2Ralpha mIgG1 Fc, mIL2-2x(SG4)-MMPcs1-2x(G4S)-mIL2Ralpha(1-215)-mIgG1Fc; no TME) APTSSSTSSSTAEAQQQQQQQQQQQQHLEQLLMDLQELLSRMENYRNLKLPRMLTFKFYLPKQATELKDLQCLEDELGPLRHVLDLTQSKSFQLEDAENFISNIRVTVVKLKGSDNTFECQFDDESATVVDFLRRWIAFCQSIISTSPQSGGGGSGGGGGPLGVRGGGGGSGGGGSELCLYDPPEVPNATFKALSYKNGTILNCECKRGFRRLKELVYMRCLGNSWSSNCQCTSNSHDKSRKQVTAQLEHQKEQQTTTDMQKPTQSMHQENLTGHCREPPPWKHEDSKRIYHFVEGQSVHYECIPGYKALQRGPAISICKMKCGKTGWTQPQLTCVDEREHHRFLASEESQGSRNSSPESETSCPITTTDFPQPTETTAMTETFVLTMEYKGCKPCICTVPEVSSVFIFPPKPKDVLTITLTPKVTCVVVDISKDDPEVQFSWFVDDVEVHTAQTQPREEQFNSTFRSVSELPIMHQDWLNGKEFKCRVNSAAFPAPIEKTISKTKGRPKAPQVYTIPPPKEQMAKDKVSLTCMITDFFPEDITVEWQWNGQPAENYKNTQPIMDTDGSYFVYSKLNVQKSNWEAGNTFTCSVLHEGLHNHHTEKSLSHSPGK | much weaker | 
 | dose-dependent binding | no binding |  | Construct EE: mIL2-SGG-GGWSHW-MMPcs1-2x(G4S)-mIL2Ra(1-215)-muIgG1Fc; pH fibronectin (protein, Synthetic: Construct EE, mIL2-SGG-GGWSHW-MMPcs1-2x(G4S)-mIL2Ra(1-215)-muIgG1Fc; pH fibronectin) APTSSSTSSSTAEAQQQQQQQQQQQQHLEQLLMDLQELLSRMENYRNLKLPRMLTFKFYLPKQATELKDLQCLEDELGPLRHVLDLTQSKSFQLEDAENFISNIRVTVVKLKGSDNTFECQFDDESATVVDFLRRWIAFCQSIISTSPQSGGGGWSHWGPLGVRGGGGGSGGGGSELCLYDPPEVPNATFKALSYKNGTILNCECKRGFRRLKELVYMRCLGNSWSSNCQCTSNSHDKSRKQVTAQLEHQKEQQTTTDMQKPTQSMHQENLTGHCREPPPWKHEDSKRIYHFVEGQSVHYECIPGYKALQRGPAISICKMKCGKTGWTQPQLTCVDEREHHRFLASEESQGSRNSSPESETSCPITTTDFPQPTETTAMTETFVLTMEYKGCKPCICTVPEVSSVFIFPPKPKDVLTITLTPKVTCVVVDISKDDPEVQFSWFVDDVEVHTAQTQPREEQFNSTFRSVSELPIMHQDWLNGKEFKCRVNSAAFPAPIEKTISKTKGRPKAPQVYTIPPPKEQMAKDKVSLTCMITDFFPEDITVEWQWNGQPAENYKNTQPIMDTDGSYFVYSKLNVQKSNWEAGNTFTCSVLHEGLHNHHTEKSLSHSPGK |  | 
 |  |  |  | Construct Y: mIL2(C140S)-VRIQRKKEKMKET-MMPcs1-2x(G4S)-mIL2Ra(1-215)-muIgG1Fc; heparin (protein, Synthetic: Construct Y, mIL2(C140S)-…-MMPcs1-2x(G4S)-mIL2Ra(1-215)-muIgG1Fc; heparin) APTSSSTSSSTAEAQQQQQQQQQQQQHLEQLLMDLQELLSRMENYRNLKLPRMLTFKFYLPKQATELKDLQCLEDELGPLRHVLDLTQSKSFQLEDAENFISNIRVTVVKLKGSDNTFECQFDDESATVVDFLRRWIAFSQSIISTSPQVRIQRKKEKMKETGPLGVRGGGGGSGGGGSELCLYDPPEVPNATFKALSYKNGTILNCECKRGFRRLKELVYMRCLGNSWSSNCQCTSNSHDKSRKQVTAQLEHQKEQQTTTDMQKPTQSMHQENLTGHCREPPPWKHEDSKRIYHFVEGQSVHYECIPGYKALQRGPAISICKMKCGKTGWTQPQLTCVDEREHHRFLASEESQGSRNSSPESETSCPITTTDFPQPTETTAMTETFVLTMEYKIEGRMDGCKPCICTVPEVSSVFIFPPKPKDVLTITLTPKVTCVVVDISKDDPEVQFSWFVDDVEVHTAQTQPREEQFNSTFRSVSELPIMHQDWLNGKEFKCRVNSAAFPAPIEKTISKTKGRPKAPQVYTIPPPKEQMAKDKVSLTCMITDFFPEDITVEWQWNGQPAENYKNTQPIMDTDGSYFVYSKLNVQKSNWEAGNTFTCSVLHEGLHNHHTEKSLSHSPGK | bound heparin in a dose-dependent manner and with higher affinity than Construct B | 
